How the values were obtained:
Test in all cases: co-IP with anti-FLAG, mass spectrometry; lysate of cells with N-FLAG B3GNT2
[1] = target: T1, NPM1 (human, UniProt P06748 1-294)
T1 construct: also called NP_001341935.1 (+1)

[2] = target: RPL32 (human, UniProt P62910 2-135)
[3] = target: T2, SLC27A4 (human, UniProt Q6P1M0 1-643)
T2 construct: also called NP_005085.2

[4] = target: T3, RARS (human, UniProt P54136 1-660)
T3 construct: also called NP_002878.2
T3 sequence (looked up): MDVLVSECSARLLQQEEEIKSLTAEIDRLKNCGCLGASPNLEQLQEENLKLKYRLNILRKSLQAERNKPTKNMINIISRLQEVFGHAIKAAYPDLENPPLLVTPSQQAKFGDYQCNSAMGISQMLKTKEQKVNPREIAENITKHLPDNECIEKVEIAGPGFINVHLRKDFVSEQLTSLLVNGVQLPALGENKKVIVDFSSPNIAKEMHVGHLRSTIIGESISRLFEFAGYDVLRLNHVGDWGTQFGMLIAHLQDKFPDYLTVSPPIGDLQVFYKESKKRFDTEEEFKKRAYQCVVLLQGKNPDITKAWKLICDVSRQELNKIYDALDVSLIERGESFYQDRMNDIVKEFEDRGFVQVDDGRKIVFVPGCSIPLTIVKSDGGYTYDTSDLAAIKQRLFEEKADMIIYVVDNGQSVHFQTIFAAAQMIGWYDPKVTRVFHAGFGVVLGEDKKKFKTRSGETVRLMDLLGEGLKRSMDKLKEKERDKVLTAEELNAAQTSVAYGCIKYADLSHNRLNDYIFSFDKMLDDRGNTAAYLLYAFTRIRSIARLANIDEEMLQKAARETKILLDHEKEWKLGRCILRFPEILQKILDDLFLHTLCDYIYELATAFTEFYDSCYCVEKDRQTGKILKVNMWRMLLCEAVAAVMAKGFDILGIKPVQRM

[5] = target: RPL26 (human, UniProt P61254 1-145)
[6] = target: T4, STAU2 (human, UniProt Q9NUL3 1-570, limits assumed)
T4 construct: also called NP_001157852.1 (+4)
T4 sequence (looked up): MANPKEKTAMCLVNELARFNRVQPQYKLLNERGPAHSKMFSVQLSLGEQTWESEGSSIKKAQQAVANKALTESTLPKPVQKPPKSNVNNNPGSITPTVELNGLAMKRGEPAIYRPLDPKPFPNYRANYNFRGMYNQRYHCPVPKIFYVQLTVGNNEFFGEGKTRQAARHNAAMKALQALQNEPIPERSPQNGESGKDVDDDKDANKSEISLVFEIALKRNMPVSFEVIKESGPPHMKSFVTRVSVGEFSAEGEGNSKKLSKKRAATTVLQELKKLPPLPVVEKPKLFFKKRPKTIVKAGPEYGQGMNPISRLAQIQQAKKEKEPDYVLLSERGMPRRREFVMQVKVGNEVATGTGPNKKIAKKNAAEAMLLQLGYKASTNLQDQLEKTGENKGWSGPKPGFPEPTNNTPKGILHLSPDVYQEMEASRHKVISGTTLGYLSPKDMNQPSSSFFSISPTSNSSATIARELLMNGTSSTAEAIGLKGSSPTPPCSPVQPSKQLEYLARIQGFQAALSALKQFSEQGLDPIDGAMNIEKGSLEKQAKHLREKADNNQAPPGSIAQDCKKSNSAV

T1 sequence (P06748 whole entry): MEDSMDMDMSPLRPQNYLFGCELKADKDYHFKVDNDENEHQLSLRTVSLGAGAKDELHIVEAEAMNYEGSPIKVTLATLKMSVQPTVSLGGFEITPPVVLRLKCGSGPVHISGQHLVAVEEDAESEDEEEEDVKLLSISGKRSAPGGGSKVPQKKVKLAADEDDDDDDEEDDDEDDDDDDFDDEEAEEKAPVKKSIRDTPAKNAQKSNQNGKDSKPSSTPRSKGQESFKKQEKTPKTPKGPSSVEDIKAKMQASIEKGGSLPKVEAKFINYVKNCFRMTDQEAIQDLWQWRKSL
T2 sequence (Q6P1M0 whole entry): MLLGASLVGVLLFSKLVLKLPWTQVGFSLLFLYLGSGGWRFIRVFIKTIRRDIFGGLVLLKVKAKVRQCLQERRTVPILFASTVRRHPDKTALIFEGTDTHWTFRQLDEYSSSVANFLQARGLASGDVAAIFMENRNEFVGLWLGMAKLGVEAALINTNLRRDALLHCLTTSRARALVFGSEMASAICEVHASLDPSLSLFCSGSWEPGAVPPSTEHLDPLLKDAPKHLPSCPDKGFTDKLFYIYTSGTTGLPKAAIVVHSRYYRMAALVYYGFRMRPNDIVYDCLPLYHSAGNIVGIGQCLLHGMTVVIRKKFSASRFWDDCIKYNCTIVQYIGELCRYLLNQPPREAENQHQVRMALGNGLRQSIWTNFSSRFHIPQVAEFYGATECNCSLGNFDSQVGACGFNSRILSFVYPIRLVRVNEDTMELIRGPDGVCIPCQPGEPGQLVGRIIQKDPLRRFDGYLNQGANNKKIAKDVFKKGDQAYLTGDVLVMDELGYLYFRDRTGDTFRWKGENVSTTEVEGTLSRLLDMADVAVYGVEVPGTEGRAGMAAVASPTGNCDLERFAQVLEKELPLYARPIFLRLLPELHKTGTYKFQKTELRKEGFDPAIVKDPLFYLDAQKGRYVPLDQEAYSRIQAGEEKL

co-IP mass spectrometry count [1]: 0
co-IP mass spectrometry count [2]: 0
co-IP mass spectrometry count [3]: 0
co-IP mass spectrometry count [4]: 0
co-IP mass spectrometry count [5]: 7
co-IP mass spectrometry count [6]: 0
B1: N-terminal FLAG tagged B3GNT2 (enzyme, human, UniProt Q9NY97 1-397, looked up)
chain: MSVGRRRIKLLGILMMANVFIYFIMEVSKSSSQEKNGKGEVIIPKEKFWKISTPPEAYWNREQEKLNRQYNPILSMLTNQTGEAGRLSNISHLNYCEPDLRVTSVVTGFNNLPDRFKDFLLYLRCRNYSLLIDQPDKCAKKPFLLLAIKSLTPHFARRQAIRESWGQESNAGNQTVVRVFLLGQTPPEDNHPDLSDMLKFESEKHQDILMWNYRDTFFNLSLKEVLFLRWVSTSCPDTEFVFKGDDDVFVNTHHILNYLNSLSKTKAKDLFIGDVIHNAGPHRDKKLKYYIPEVVYSGLYPPYAGGGGFLYSGHLALRLYHITDQVHLYPIDDVYTGMCLQKLGLVPEKHKGFRTFDIEEKNKNNICSYVDLMLVHSRKPQEMIDIWSQLQSAHLKC
notes: Bait of the co-IP; pulled down with mouse anti-FLAG (Millipore Sigma F3165) from cell lysate; also called N-FLAG B3GNT2; N-term FLAG; not shown: N-terminal FLAG tag

Source: patent US20240261333A1 (published 2024)
